Test results taken from US20160024210A1 (AstraZeneca / MedImmune, published 2016).

T1: H7CRECD human IgG1 Fc fusion protein (human, UniProt Q96BF3 23-150)
T1 construct: also called H7CR fusion protein; not shown: human IgG1 Fc
T1 sequence: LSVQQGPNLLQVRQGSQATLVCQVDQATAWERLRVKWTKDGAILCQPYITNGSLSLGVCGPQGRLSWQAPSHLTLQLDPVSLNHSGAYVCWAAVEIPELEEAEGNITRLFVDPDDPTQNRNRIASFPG

T2: human H7CR (B7-H7 counter-receptor) (human, UniProt Q96BF3 23-282)
T2 construct: Used for H7CR on CHO.hH7CR transfectants, human T cells and tonsil tissue; also called B7-H7CR; CD28H
T2 sequence: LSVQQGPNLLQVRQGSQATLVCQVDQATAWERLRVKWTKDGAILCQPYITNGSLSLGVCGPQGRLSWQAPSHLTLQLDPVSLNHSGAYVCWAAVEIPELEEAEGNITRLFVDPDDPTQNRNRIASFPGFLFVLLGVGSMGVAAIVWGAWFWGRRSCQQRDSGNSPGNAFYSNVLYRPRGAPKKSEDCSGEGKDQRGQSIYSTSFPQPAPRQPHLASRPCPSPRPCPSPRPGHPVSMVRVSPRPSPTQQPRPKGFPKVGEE

B1: 1.3 humanized variant V8 (heavy 1C / light 1B) (antibody, V domains shown)
VH: QVQLQESGPGLVKPSQTLSLTCTVSGFSISTSGYYWSWIRQFPGKRLEWMGYINYGGGTSYNPSLKSRVTISRDTSKNQFSLKLSSVTAADTATYCCATMADRFAFFDVWGQGTMVTVSS
VL: DIVMTQSPDSLAVSLGERATINCKSSQSLFSSNTNRNYLNWYQQKPGQSPKLLIYHASTRLSGVPDRFSGSGSGTDFTLTISSLQAEDVADYYCQHHYETPLTFGDGTKLEIK
notes: Variable domains only; detected with anti-human IgG4 HRP
B2: 1.3 humanized variant V4 (heavy 2A / light 1A) (antibody, V domains shown)
VH: QVQLQESGPGLVKPAQTLSLTCTVSGFSISTSGYYWSWIRQYPGKGLEWIGYINYGGGTYYNPSLKSRVTISVDTSKNQFSLKLTSVTAADTAVYHCATMADRFAFFDVWGQGTMVTVSS
VL: DIVMTQSPDSLAVSLGERATINCKSSQSLFSSNTNRNYLAWYQQKPGQPPKLLIYHASTRESGVPDRFSGSGSGTDFTLTISSLQAEDVAVYYCQHHYETPLTFGQGTKLEIK
notes: as for B1
B3: 1.3 humanized variant V6 (heavy 2C / light 1A) (antibody, V domains shown)
VH: QVQLQESGPGLVKPAQTLSLTCTVSGFSISTSGYYWSWIRQFPGKRLEWMGYINYGGGTSYNPSLKSRVTISRDTSKNQFSLKLTSVTAADTATYCCATMADRFAFFDVWGQGTMVTVSS
VL: DIVMTQSPDSLAVSLGERATINCKSSQSLFSSNTNRNYLAWYQQKPGQPPKLLIYHASTRESGVPDRFSGSGSGTDFTLTISSLQAEDVAVYYCQHHYETPLTFGQGTKLEIK
notes: as for B1
B4: 1.3 humanized variant V9 (heavy 2B / light 1B) (antibody, V domains shown)
VH: QVQLQESGPGLVKPAQTLSLTCTVSGFSISTSGYYWSWIRQYPGKRLEWIGYINYGGGTSYNPSLKSRVTISRDTSKNQFSLKLTSVTAADTATYCCATMADRFAFFDVWGQGTMVTVSS
VL: DIVMTQSPDSLAVSLGERATINCKSSQSLFSSNTNRNYLNWYQQKPGQSPKLLIYHASTRLSGVPDRFSGSGSGTDFTLTISSLQAEDVADYYCQHHYETPLTFGDGTKLEIK
notes: as for B1
B5: 1.3 humanized variant V5 (heavy 2B / light 1A) (antibody, V domains shown)
VH: QVQLQESGPGLVKPAQTLSLTCTVSGFSISTSGYYWSWIRQYPGKRLEWIGYINYGGGTSYNPSLKSRVTISRDTSKNQFSLKLTSVTAADTATYCCATMADRFAFFDVWGQGTMVTVSS
VL: DIVMTQSPDSLAVSLGERATINCKSSQSLFSSNTNRNYLAWYQQKPGQPPKLLIYHASTRESGVPDRFSGSGSGTDFTLTISSLQAEDVAVYYCQHHYETPLTFGQGTKLEIK
notes: as for B1
B6: 1.3 humanized variant V3 (heavy 1C / light 1A) (antibody, V domains shown)
VH: QVQLQESGPGLVKPSQTLSLTCTVSGFSISTSGYYWSWIRQFPGKRLEWMGYINYGGGTSYNPSLKSRVTISRDTSKNQFSLKLSSVTAADTATYCCATMADRFAFFDVWGQGTMVTVSS
VL: DIVMTQSPDSLAVSLGERATINCKSSQSLFSSNTNRNYLAWYQQKPGQPPKLLIYHASTRESGVPDRFSGSGSGTDFTLTISSLQAEDVAVYYCQHHYETPLTFGQGTKLEIK
notes: as for B1
B7: 1.3 humanized variant V1 (heavy 1A / light 1A) (antibody, V domains shown)
VH: QVQLQESGPGLVKPSQTLSLTCTVSGFSISTSGYYWSWIRQHPGKGLEWIGYINYGGGTYYNPSLKSRVTISVDTSKNQFSLKLSSVTAADTAVYYCATMADRFAFFDVWGQGTMVTVSS
VL: DIVMTQSPDSLAVSLGERATINCKSSQSLFSSNTNRNYLAWYQQKPGQPPKLLIYHASTRESGVPDRFSGSGSGTDFTLTISSLQAEDVAVYYCQHHYETPLTFGQGTKLEIK
notes: Variable domains only; detected with anti-human IgG4 HRP; also called VI; variant 1
B8: 1.3 humanized variant V11 (heavy 1B / light 1C) (antibody, V domains shown)
VH: QVQLQESGPGLVKPSQTLSLTCTVSGFSISTSGYYWSWIRQHPGKRLEWIGYINYGGGTSYNPSLKSRVTISRDTSKNQFSLKLSSVTAADTAVYCCATMADRFAFFDVWGQGTMVTVSS
VL: DIVMTQSPDSLAVSLGERATINCLSSQSLFSSNTNRNYLNWYLQKPGQSPKLLIYHASTRLSGVPDRFIGSGSGTDFTLTISSLQAEDVGDYYCQHHYETPLTFGDGTKLEIK
notes: as for B1
B9: 1.3 humanized variant V7 (heavy 1B / light 1B) (antibody, V domains shown)
VH: QVQLQESGPGLVKPSQTLSLTCTVSGFSISTSGYYWSWIRQHPGKRLEWIGYINYGGGTSYNPSLKSRVTISRDTSKNQFSLKLSSVTAADTAVYCCATMADRFAFFDVWGQGTMVTVSS
VL: DIVMTQSPDSLAVSLGERATINCKSSQSLFSSNTNRNYLNWYQQKPGQSPKLLIYHASTRLSGVPDRFSGSGSGTDFTLTISSLQAEDVADYYCQHHYETPLTFGDGTKLEIK
notes: as for B1
B10: 1.3 humanized variant V12 (heavy 1C / light 1C) (antibody, V domains shown)
VH: QVQLQESGPGLVKPSQTLSLTCTVSGFSISTSGYYWSWIRQFPGKRLEWMGYINYGGGTSYNPSLKSRVTISRDTSKNQFSLKLSSVTAADTATYCCATMADRFAFFDVWGQGTMVTVSS
VL: DIVMTQSPDSLAVSLGERATINCLSSQSLFSSNTNRNYLNWYLQKPGQSPKLLIYHASTRLSGVPDRFIGSGSGTDFTLTISSLQAEDVGDYYCQHHYETPLTFGDGTKLEIK
notes: as for B1
B11: 1.3 humanized variant V2 (heavy 1B / light 1A) (antibody, V domains shown)
VH: QVQLQESGPGLVKPSQTLSLTCTVSGFSISTSGYYWSWIRQHPGKRLEWIGYINYGGGTSYNPSLKSRVTISRDTSKNQFSLKLSSVTAADTAVYCCATMADRFAFFDVWGQGTMVTVSS
VL: DIVMTQSPDSLAVSLGERATINCKSSQSLFSSNTNRNYLAWYQQKPGQPPKLLIYHASTRESGVPDRFSGSGSGTDFTLTISSLQAEDVAVYYCQHHYETPLTFGQGTKLEIK
notes: as for B1
B12: 1.3 humanized variant V14 (heavy 2C / light 1C) (antibody, V domains shown)
VH: QVQLQESGPGLVKPAQTLSLTCTVSGFSISTSGYYWSWIRQFPGKRLEWMGYINYGGGTSYNPSLKSRVTISRDTSKNQFSLKLTSVTAADTATYCCATMADRFAFFDVWGQGTMVTVSS
VL: DIVMTQSPDSLAVSLGERATINCLSSQSLFSSNTNRNYLNWYLQKPGQSPKLLIYHASTRLSGVPDRFIGSGSGTDFTLTISSLQAEDVGDYYCQHHYETPLTFGDGTKLEIK
notes: as for B1
B13: 1.3 humanized variant V13 (heavy 2B / light 1C) (antibody, V domains shown)
VH: QVQLQESGPGLVKPAQTLSLTCTVSGFSISTSGYYWSWIRQYPGKRLEWIGYINYGGGTSYNPSLKSRVTISRDTSKNQFSLKLTSVTAADTATYCCATMADRFAFFDVWGQGTMVTVSS
VL: DIVMTQSPDSLAVSLGERATINCLSSQSLFSSNTNRNYLNWYLQKPGQSPKLLIYHASTRLSGVPDRFIGSGSGTDFTLTISSLQAEDVGDYYCQHHYETPLTFGDGTKLEIK
notes: as for B1
B14: 1.3 humanized variant V10 (heavy 2C / light 1B) (antibody, V domains shown)
VH: QVQLQESGPGLVKPAQTLSLTCTVSGFSISTSGYYWSWIRQFPGKRLEWMGYINYGGGTSYNPSLKSRVTISRDTSKNQFSLKLTSVTAADTATYCCATMADRFAFFDVWGQGTMVTVSS
VL: DIVMTQSPDSLAVSLGERATINCKSSQSLFSSNTNRNYLNWYQQKPGQSPKLLIYHASTRLSGVPDRFSGSGSGTDFTLTISSLQAEDVADYYCQHHYETPLTFGDGTKLEIK
notes: as for B1
B15: human IgG4 Fc chimeric 1.3 antibody (antibody, V domains shown)
VH: QIQLQESGPGLVKPSQSLSLTCSVTGFSISTSGYYWTWIRQFPGKRLEWMGYINYGGGTSYNPSLKSRISITRDTSKNQFLLHLNSVTTEDTATYCCATMADRFAFFDVWGQGIQVTVSS
VL: DIVMTQSPSSLAVSAGEKVTISCLSSQSLFSSNTNRNYLNWYLQKPGQSPKLLIYHASTRLTGVPDRFIGSGSGTDFTLTISSVQAEDLGDYYCQHHYETPLTFGDGTKLEIKR
notes: also called parental chimeric 1.3 antibody
B16: chimeric 4.5 antibody (antibody, human IgG4 S228P, kappa, V domains shown)
VH: QIQLQESGPGLVKPSQSLSLTCSVTGFSITTGGYYWNWIRQFPGKKLEWMGYIYTSGRTSYNPSLKSRISITRDTSKNQFFLQLNSMTTEDTATYYCADMADKGGWFAYWGQGTLVTVSS
VL: DIVMTQSPSSLAVSAGEKVTISCLSSQSLFSSNTKRNYLNWYLQKPGQSPKLLIYHASTRLTGVPGRFIGSGSGTDFTLTVSTVQAEDLGDYFCQQHYETPLTFGDGTRLEIKR

Assays:
[1] = target: T1, H7CRECD human IgG1 Fc fusion protein; experiment: ELISA, H7CRECD human IgG1 Fc immobilized, anti-human IgG4 HRP detection
Procedure: 100 μl 1 μg/ml H7CRECD human IgG1 Fc fusion protein diluted in PBS was immobilized on flat bottom 96 well plate (Costar 9017) overnight at 4° C. Plates were washed twice with PBS+0.1% PS-20 and blocked with 200 μl/well PBS 10% FBS at RT for 1 hr. 100 μl human IgG4 Fc chimeric 1.3 and 14 selected 1.3 humanized variants diluted in PBS 10% FBS were added to each well and incubated at RT for 1 hr. Plates were washed three times and 100 μl 1 μg/ml anti-human IgG4 HRP (Southern Biotech) was added to each well and incubated at RT for 1 hr. Plates were washed six times and 100 μl TMB substrate (SurModics) was added to each well for 5-15 mins. 100 μl stop solution (0.1M Sulfuric acid) was added to each well. Plates were read at Absorbance 450 nm by PerkinElmer EnVision 2104 Multilabel Reader.

[2] = target: T2, human H7CR (B7-H7 counter-receptor); experiment: flow cytometry titration on CHO.hH7CR transfectants, one-site specific binding fit of MFI
Procedure: (§1) A serial dilution of chimeric 1.3 and 4.5 of 0, 0.1 ng, 0.3 ng, 1 ng, 3 ng, 10 ng, 30 ng, 100 ng, 300 ng, 1 μg, 3 μg and 10 μg were added to the cells and incubated at 4° C. for 30 min. Cells were then washed twice with 2 ml flow cytometry buffer, and resuspended in 100 μl flow cytometry buffer. 1 μl anti-hIg PE secondary antibody (Biolegend) was added and incubated with the cells for 15 mins Samples were then washed and resuspended in 100 μl flow cytometry buffer. Flow Cytometry data was acquired using BD Canto (BD Biosciences) in plate format and analyzed by FlowJo software. Staining data (MFI) was then input into Prism 5 software to generate binding curve. Curve-fit using one-site specific binding algorithm calculates individual KD for each antibody.

[3] = target: T2, human H7CR (B7-H7 counter-receptor); experiment: flow cytometry, MFI against antibody concentration on human naive CD4+CD45RA+ T cells, anti-hIg PE secondary antibody, one-site specific binding fit
Procedure: as §1

[4] = target: T2, human H7CR (B7-H7 counter-receptor); experiment: flow cytometry, MFI against antibody concentration on human naive CD8+CD45RA+ T cells, anti-hIg PE secondary antibody, one-site specific binding fit
Procedure: as §1

Row | Binder | EC50 [1] [nM] | also measured
1 | B1 | 0.74 | –
2 | B2 | 1.08 | –
3 | B3 | 0.3 | –
4 | B4 | 2.43 | –
5 | B5 | 0.28 | –
6 | B6 | 0.38 | –
7 | B7 | 0.84 | –
8 | B8 | 1.04 | –
9 | B9 | 1.01 | –
10 | B10 | 0.75 | –
11 | B11 | 0.23 | –
12 | B12 | 0.32 | –
13 | B13 | 0.45 | –
14 | B14 | 1.18 | –
15 | B15 | 0.055 | Kd [2]: 5.9 nM; Kd [3]: 24 nM; Kd [4]: 27 nM
16 | B16 | – | Kd [2]: 3.5 nM; Kd [3]: 6.9 nM; Kd [4]: 6.9 nM
